Experimental data published in article PMC5562754.

How the values were obtained:
[1] = target: PorU (Porphyromonas gingivalis W50 (endogenous in OMVs)); test: native gel or EMSA; 2D BN-PAGE (Coomassie, spots identified by MS, densitometry) of large-scale glycerol gradient fractions F15-F17 of 1% DDM-solubilised OMV lysate of WT W50
[2] = target: PorQ (strain ATCC 33277) (Porphyromonas gingivalis ATCC 33277 (endogenous in OMVs)); test: native gel or EMSA; conditions: scale: PorZ per PorQ

PorQ (natural protein) gave a stoichiometry N ([1]; scale: PorQ per PorU) of 1.

Substance PorV (natural protein) has a stoichiometry N ([1]; scale: PorV per PorU) of 3.

For PorZ (natural protein), the stoichiometry N ([1]; scale: PorZ per PorU) was 1.

“PorZ (strain ATCC 33277) (natural protein)” gave a stoichiometry N [2] of 1.
